Molecular target: β-crystallin (containing about 10% βA3 -crystallin)
Assay: ELISA of mouse sera in the same manner as in Experimental Example 2; anti-crystallin antibody titer, control group
Conditions: scale: dilution ratio

antibody titer: 500
Substance: sera of control mice given PBS (Experimental Example 5) (polyclonal serum or antibody)

Reference: patent publication US5871739
